Laboratory results as given in patent publication US20030191048A1.

Biological target: c-Kit (CD 117) receptor tyrosine kinase on DMVEC (human) (UniProt P10721)
Assay: cell-based or functional assay

c-Kit (CD 117) receptor tyrosine kinase on DMVEC (human), sequence (P10721 26-976): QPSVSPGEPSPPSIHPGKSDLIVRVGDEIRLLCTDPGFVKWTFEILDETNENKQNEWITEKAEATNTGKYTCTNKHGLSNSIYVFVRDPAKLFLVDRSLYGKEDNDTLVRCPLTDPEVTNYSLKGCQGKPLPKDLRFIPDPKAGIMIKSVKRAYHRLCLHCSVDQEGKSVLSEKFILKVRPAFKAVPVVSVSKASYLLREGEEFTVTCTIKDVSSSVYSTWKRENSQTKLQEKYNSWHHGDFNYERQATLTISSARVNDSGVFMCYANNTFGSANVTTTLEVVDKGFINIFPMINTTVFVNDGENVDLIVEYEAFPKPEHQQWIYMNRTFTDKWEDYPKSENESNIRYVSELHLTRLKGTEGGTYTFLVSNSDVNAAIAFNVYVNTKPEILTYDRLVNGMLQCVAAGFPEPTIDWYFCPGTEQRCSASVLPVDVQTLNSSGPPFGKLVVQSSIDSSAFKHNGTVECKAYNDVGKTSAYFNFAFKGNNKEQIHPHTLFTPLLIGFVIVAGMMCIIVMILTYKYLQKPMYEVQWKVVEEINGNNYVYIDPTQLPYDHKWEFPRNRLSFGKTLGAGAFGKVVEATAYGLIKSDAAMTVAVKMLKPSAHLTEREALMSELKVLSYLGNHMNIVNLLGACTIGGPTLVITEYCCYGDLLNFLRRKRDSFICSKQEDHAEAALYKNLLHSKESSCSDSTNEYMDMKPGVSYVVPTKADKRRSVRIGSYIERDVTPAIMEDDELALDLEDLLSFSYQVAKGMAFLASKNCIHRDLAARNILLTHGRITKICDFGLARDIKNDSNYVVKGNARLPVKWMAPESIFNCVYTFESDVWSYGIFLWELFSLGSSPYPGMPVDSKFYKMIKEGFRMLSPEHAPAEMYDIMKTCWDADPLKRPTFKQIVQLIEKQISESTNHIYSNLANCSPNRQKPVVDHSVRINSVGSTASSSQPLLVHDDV

recombinant stem cell factor (SCF) (from UniProt P21583 26-189) (ligand)
SCF dose giving maximal proliferation (XTT-based assay), mock- and KSHV-infected DMVEC: 50 to 100 ng/mL
proliferation (XTT-based assay), increase over basal proliferation, KSHV-infected DMVEC: < 85%
proliferation (XTT-based assay), increase over basal proliferation, mock-infected DMVEC: < 40%
